To fix the notation:
B1: clusterin purified from human plasma (natural protein)
chain 1: DQTVSDNELQEMSNQGSKYVNKEIQNAVNGVKQIKTLIEKTNEERKTLLSNLEEAKKKKEDALNETRESETKLKELPGVCNETMMALWEECKPCLKQTCMKFYARVCRSGSGLVGRQLEEFLNQSSPFYFWMNGDRIDSLLENDRQQTHMLDVMQDHFSRASSIIDELFQDRFFTREPQDTYHYLPFSLPHRRPHFFFPKSRIVR
chain 2: SLMPFSPYEPLNFHAMFQPFLEMIHEAQQAMDIHFHSPAFQHPPTEFIREGDDDRTVCREIRHNSTGCLRMKDQCDKCREILSVDCSTNNPSQAKLRRELDESLQVAERLTRKYNELLKSYQWKMLNTSSLLEQLNEQFNWVSRLANLTQGEDQYYLRVTTVASHTSDSDVPSGVTEVVVKLFDSDPITVTVPVEVSRKNPKFMETVAEKALQEYRKKHREE
notes: One 'monomer' is a single α-β structure joined by 5 disulfide bonds; The protein is N-glycosylated at six sites; also called pCLU; human plasma CLU
B2: wild type recombinant human clusterin with a twin Streptag at the C-terminus of the α-chain (natural protein)
chain 1: SLMPFSPYEPLNFHAMFQPFLEMIHEAQQAMDIHFHSPAFQHPPTEFIREGDDDRTVCREIRHNSTGCLRMKDQCDKCREILSVDCSTNNPSQAKLRRELDESLQVAERLTRKYNELLKSYQWKMLNTSSLLEQLNEQFNWVSRLANLTQGEDQYYLRVTTVASHTSDSDVPSGVTEVVVKLFDSDPITVTVPVEVSRKNPKFMETVAEKALQEYRKKHREE
chain 2: DQTVSDNELQEMSNQGSKYVNKEIQNAVNGVKQIKTLIEKTNEERKTLLSNLEEAKKKKEDALNETRESETKLKELPGVCNETMMALWEECKPCLKQTCMKFYARVCRSGSGLVGRQLEEFLNQSSPFYFWMNGDRIDSLLENDRQQTHMLDVMQDHFSRASSIIDELFQDRFFTREPQDTYHYLPFSLPHRRPHFFFPKSRIVR
notes: The tag is separated from the inter-chain cleavage motif by a 4-glycine spacer; About 90-95% of the protein is cleaved into α- and β-chains, and it is glycosylated; also called rCLU-αC-ST; rCLU-ST; source: MEXi293E cells, transfected, secreted into protein-free medium, purified (Streptactin-XT); not shown: twin Streptag, C-terminal, kept
B3: wild type recombinant human clusterin with the C-tag at the C-terminus of the β-chain (natural protein)
chain 1: SLMPFSPYEPLNFHAMFQPFLEMIHEAQQAMDIHFHSPAFQHPPTEFIREGDDDRTVCREIRHNSTGCLRMKDQCDKCREILSVDCSTNNPSQAKLRRELDESLQVAERLTRKYNELLKSYQWKMLNTSSLLEQLNEQFNWVSRLANLTQGEDQYYLRVTTVASHTSDSDVPSGVTEVVVKLFDSDPITVTVPVEVSRKNPKFMETVAEKALQEYRKKHREE
chain 2: DQTVSDNELQEMSNQGSKYVNKEIQNAVNGVKQIKTLIEKTNEERKTLLSNLEEAKKKKEDALNETRESETKLKELPGVCNETMMALWEECKPCLKQTCMKFYARVCRSGSGLVGRQLEEFLNQSSPFYFWMNGDRIDSLLENDRQQTHMLDVMQDHFSRASSIIDELFQDRFFTREPQDTYHYLPFSLPHRRPHFFFPKSRIVR
notes: The protein is cleaved into α- and β-chains and is glycosylated; also called rCLU-CT; source: MEXi293E cells, transfected, secreted into protein-free medium, purified (Capture Select C-tag column); not shown: C-tag (EPEA), C-terminal, kept

We go through 3 proteins from article PMC7455699, “Rapid high-yield expression and purification of fully post-translationally modified recombinant clusterin and mutants” (Scientific Reports, 2020).

This data set concerns the molecule itself. Kind of data set: mass photometry; proteins at 1 nM in PBS (pH 7.4), 10 µl analysed over 10 min; monomer (a single disulphide-linked α-β structure) to dimer (two non-covalently associated α-β structures).
With B1, the “percent of species in solution that is dimer” value (from here on “percent of species”) was about 60% and the “stoichiometry N” value is 2.

With B2, the “percent of species” value is about 60% and the “stoichiometry N” value was determined as 2.

On to B3, for which the “percent of species” value was about 60% and the “stoichiometry N” value came out at 2.
